“And” between values parts separate entries of the source, which are not always exact repeats. Equal entries are not always repeated.
B1: TrkAIg2-NMR (domain or fragment, human)
chain: MDDDDDVSFCASVQLHTAVEMHHWCIPFSVDGQPAPSLRWLFNGSVLNETSFIFTEFLEPAANETVRHGCLRLNQPTHVNNGNYTLLAANPCGQASASIMAAFMDNPF

Experiments:
[1] = biological target: mouse NGF (nerve growth factor, from mouse submaxillary salivary glands) (mouse) (UniProt P01139)
[2] = biological target: T1, mouse NGF (nerve growth factor, from mouse submaxillary salivary glands) (mouse, UniProt P01139 122-241); assay: cell-based or functional assay
T1 sequence (P01139 122-241): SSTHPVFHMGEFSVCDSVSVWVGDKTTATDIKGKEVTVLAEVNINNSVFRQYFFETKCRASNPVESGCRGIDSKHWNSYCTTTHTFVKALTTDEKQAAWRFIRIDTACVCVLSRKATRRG

125I-labeled NGF = 125I-labeled NGF (UniProt P01139 122-241, 125I label); assay: radioligand binding; competition: 15N-labeled TrkAIg2-NMR at varied concentration sequesters 125I-labeled NGF from full-length human TrkA on HEK cells; details: both partners purified
Chain of 125I-labeled NGF (P01139 122-241): as above

[3] = biological target: T1, mouse NGF (nerve growth factor, from …); assay: SEC; Superdex 75 gel filtration; TrkAIg2-NMR and mouse NGF applied separately and as a 1:1 ratio complex (1 mg/mL of each); 50 mM phosphate buffer, 150 μM NaCl, pH 7.4; sizes from a calibration curve; details: both partners purified

Chain of mouse NGF (nerve growth factor, from mouse submaxillary salivary glands) (mouse) (P01139 122-241): as above

Molecule	NGF-dependent PC12 cell survival/proliferation (MTS assay, mouse NGF 5 ng/mL), serial dilutions of TrkAIg2-WT; EC50 of the reduction [1] [nM]	NGF-dependent PC12 cell survival/proliferation (MTS assay, mouse NGF 5 ng/mL), serial dilutions of TrkAIg2-NMR; EC50 of the reduction [2] [nM]	IC50 (125I-labeled NGF)	stoichiometry N [3]
"wild-type" TrkAIg2 (TrkAIg2-WT) (domain or fragment)	480			
B1		2100	~5000 nM and ~2000 nM	2 TrkAIg2-NMR monomers per NGF dimer

Source: article PMC4504729 (Journal of Medicinal Chemistry, 2014)
